From the RNAGym collection of RNA variant scans (doi:10.7554/elife.90254)

B1: OR4K15 (parent)
chain: GUUAACGGUCAUAGGCCAUGGAAACUAGGAGCACCAUUUCGCUGCCAGUGAAGAAAUGAACAAAGAAAAUCUGGGCCAGGCAGGCAUCAAAAGAAAUAGUCUUGCGCUCAACCAGAAAGUCUGUAAUCAUUUUAAGGGUA

Variants of: B1
Test: self-cleavage, relative activity (ratio to wild type); higher = more cleavage; in vitro, sequencing; the parent is a self-cleaving ribozyme

| Variant | self-cleavage |
| --- | --- |
| GUUAACGGUCAUAGGCCAUGGAAACUAGGAGCACCAUUUCGCUGCCAGUGAAGAAAUGAACAAAGAAUGUCUGGGCCAGGCAGGCAUCAAAAGAAAUAGUCUUGCGCUCAACCAGAAAGUCUGUAAUCAUUUUAAGGGUA [A68U A69G] | 0.98 |
| GUUAACGGUCAUAGGCCAUGGAAACUAGGAGCACCAUUUCGCUGCCAGUGAAGAAAUGAACAAAGAAGAUCUGGGCCAGGCAGGCAUCAAAAGAAAUAGUCUUGCGCUCAACCAGAAAGUCUGUAAUCAUUUUAGGGGUA [A68G A135G] | 1.23 |
| GUUAACGGUCAUAGGCCAUGGAAACUAGGAGCACCAUUUCGCUGCCAGUGAAGAAAUGAACAAAGAAGAUCUGGGCCAGGCAGGCAUCAAAAGAAAUAGUCUUGCGCUCAACCAGAAAGUCUAUAAUCAUUUUAAGGGUA [A68G G123A] | 1.45 |
| GUUAACGGUCAUAGGCCAUGGAAACUAGGAGCACCAUUUCGCUGCCAGUGAAGAAAUGAACAAAGAAGAUCUGGGCCAGGCAGGCAUCAAAAGAAAUAGUCUUGCACUCAACCAGAAAGUCUGUAAUCAUUUUAAGGGUA [A68G G106A] | 0.02 |
| GUUAACGGUCAUAGGCCAUGGAAACUAGGAGCACCAUUUCGCUGCCAGUGAAGAAAUGAACAAAGAAUAUCUGGGCCAGGCAGGCAUCAGAAGAAAUAGUCUUGCGCUCAACCAGAAAGUCUGUAAUCAUUUUAAGGGUA [A68U A90G] | 1.18 |
| GUUAACGGUCAUAGGCCAUGGAAACUAGGAGCACCAUUUCGCUGCCAGUGAAGAAAUGAACAAAGAAGAUCUGGGCCAGGCAGGCAUCAAAAGAAAUAGUCUUGCGCUCAACCAGAAAGUCAGUAAUCAUUUUAAGGGUA [A68G U122A] | 0.93 |
| GUUAACGGUCAUAGGCCAUGGAAACUAGGAGCACCAUUUCGCUGCCAGUGAAGAAAUGAACAAAGAAGACCUGGGCCAGGCAGGCAUCAAAAGAAAUAGUCUUGCGCUCAACCAGAAAGUCUGUAAUCAUUUUAAGGGUA [A68G U70C] | 0.51 |
| GUUAACGGUCAUAGGCCAUGGAAACUAGGAGCACCAUUUCGCUGCCAGUGAAGAAAUGAACAAAGAAGAUCUGGGCCAGGCAGGCAUCAAAAGAAAUAGUCUUACGCUCAACCAGAAAGUCUGUAAUCAUUUUAAGGGUA [A68G G104A] | 0.04 |
| GUUAACGGUCAUAGGCCAUGGAAACUAGGAGCACCAUUUCGCUGCCAGUGAAGAAAUGAACAAAGAAUAUCUGGGCCAGGCAGGCAUCAAAAGAAAUAGUCUUGCGCUCAACCAGAAAGUCUGUAAUCAUUUUAAGGGUA [A68U] | 1.83 |
| GUUAACGGUCAUAGGCCAUGGAAACUAGGAGCACCAUUUCGCUGCCAGUGAAGAAAUGAACAAAGAAGAUAUGGGCCAGGCAGGCAUCAAAAGAAAUAGUCUUGCGCUCAACCAGAAAGUCUGUAAUCAUUUUAAGGGUA [A68G C71A] | 0.6 |
| GUUAACGGUCAUAGGCCAUGGAAACUAGGAGCACCAUUUCGCUGCCAGUGAAGAAAUGAACAAAGAAGAUCUGGGCCAGGCAGGCAUCAAAAGAAAUAGUCUUGCGCUCAACCAGAAAGUCUGUAGUCAUUUUAAGGGUA [A68G A126G] | 0.6 |
| GUUAACGGUCAUAGGCCAUGGAAACUAGGAGCACCAUUUCGCUGCCAGUGAAGAAAUGAACAAAGAAGAUCUGGGCCAGGCAGGCAUCAAAAGAAAUAGUCUUGCGCUCAACCAGAAAGUCUGUAUUCAUUUUAAGGGUA [A68G A126U] | 0.66 |
| GUUAACGGUCAUAGGCCAUGGAAACUAGGAGCACCAUUUCGCUGCCAGUGAAGAAAUGAACAAAGAAGAUCUGGGCCAGGCAGGCAUCAAAAGAAAUAGUCUUGCGCUCAACCAGAAAGUCUGUAAUCAAUUUAAGGGUA [A68G U130A] | 0.91 |
| GUUAACGGUCAUAGGCCAUGGAAACUAGGAGCACCAUUUCGCUGCCAGUGAAGAAAUGAACAAAGAAGAUCUGGGCCAGGCAGGCAUCAAAAGAAAUAGUCUUGCGCUCAACCAGAAAGUCUGUAAUCACUUUAAGGGUA [A68G U130C] | 1.13 |
| GUUAACGGUCAUAGGCCAUGGAAACUAGGAGCACCAUUUCGCUGCCAGUGAAGAAAUGAACAAAGAAGAUCUGGGCCAGGCAGGCAUCAAAAGAAAUAGUCUUGCGCUCAACCAGAAAGUCUGUAAUCAUUUUUAGGGUA [A68G A134U] | 1.49 |
| GUUAACGGUCAUAGGCCAUGGAAACUAGGAGCACCAUUUCGCUGCCAGUGAAGAAAUGAACAAAGAAUAUCUGGGCCAGGCAGGCAUCAAGAGAAAUAGUCUUGCGCUCAACCAGAAAGUCUGUAAUCAUUUUAAGGGUA [A68U A91G] | 1.35 |
| GUUAACGGUCAUAGGCCAUGGAAACUAGGAGCACCAUUUCGCUGCCAGUGAAGAAAUGAACAAAGAAGAUCUGGGCCAUGCAGGCAUCAAAAGAAAUAGUCUUGCGCUCAACCAGAAAGUCUGUAAUCAUUUUAAGGGUA [A68G G79U] | 0.07 |
| GUUAACGGUCAUAGGCCAUGGAAACUAGGAGCACCAUUUCGCUGCCAGUGAAGAAAUGAACAAAGAAGAUCUGGGCCAGGCAGGCAUCAAAAGAAAUAGUCUUGCGCUCAACCAGAAAGUCUGUAAUCAUCUUAAGGGUA [A68G U131C] | 0.99 |
| GUUAACGGUCAUAGGCCAUGGAAACUAGGAGCACCAUUUCGCUGCCAGUGAAGAAAUGAACAAAGAAGAUCUGGGCCAGGCAGGCAUCAAAAGAAAUAGUCUUGCGCUCAACCAGAAAGUUUGUAAUCAUUUUAAGGGUA [A68G C121U] | 0.29 |
| GUUAACGGUCAUAGGCCAUGGAAACUAGGAGCACCAUUUCGCUGCCAGUGAAGAAAUGAACAAAGAAGAUCUGGGCCAGGCAGGCAUCAAAAGAAAUAGUCUUGCGCUCAACCAGAAAGUCUGUAAGCAUUUUAAGGGUA [A68G U127G] | 1.35 |
| GUUAACGGUCAUAGGCCAUGGAAACUAGGAGCACCAUUUCGCUGCCAGUGAAGAAAUGAACAAAGAAGAUCUGGGCCAGGCAGGCAUCAAAAGAAAUAGUCUUGCGCUCAACCAGAAAGUCUGUAAACAUUUUAAGGGUA [A68G U127A] | 1.01 |

| Variant | self-cleavage |
| --- | --- |
| GUUAACGGUCAUAGGCCAUGGAAACUAGGAGCACCAUUUCGCUGCCAGUGAAGAAAUGAACAAAGAAGAUCUGGGCCAGGCAGGCAUCAAAAGAAAUAGUCUUGCGCUCAACCAGAAAGUCUGUAACCAUUUUAAGGGUA [A68G U127C] | 1.05 |
| GUUAACGGUCAUAGGCCAUGGAAACUAGGAGCACCAUUUCGCUGCCAGUGAAGAAAUGAACAAAGAAGAUCUGGGCCAGGCAGGCAUCAAAAGAAAUAGUCUUGCGCUCAACCAGAAAGUCUGUAAUCAUUUUAAGGGAA [A68G U139A] | 2.25 |
| GUUAACGGUCAUAGGCCAUGGAAACUAGGAGCACCAUUUCGCUGCCAGUGAAGAAAUGAACAAAGAAGAUCUGGGCCAGGCAGGCAUCAAAAGAAAUAAUCUUGCGCUCAACCAGAAAGUCUGUAAUCAUUUUAAGGGUA [A68G G99A] | 0.57 |
| GUUAACGGUCAUAGGCCAUGGAAACUAGGAGCACCAUUUCGCUGCCAGUGAAGAAAUGAACAAAGAAGAUCUGGGCCAGGCAGGCAUCAAAAGAAAUAGCCUUGCGCUCAACCAGAAAGUCUGUAAUCAUUUUAAGGGUA [A68G U100C] | 1.42 |
| GUUAACGGUCAUAGGCCAUGGAAACUAGGAGCACCAUUUCGCUGCCAGUGAAGAAAUGAACAAAGAAGAUCUGGGCCAGGCAGGCAUCAAAAGAAAUAGACUUGCGCUCAACCAGAAAGUCUGUAAUCAUUUUAAGGGUA [A68G U100A] | 0.24 |
| GUUAACGGUCAUAGGCCAUGGAAACUAGGAGCACCAUUUCGCUGCCAGUGAAGAAAUGAACAAAGAAGAUCUGGGCCAGGCAGGCAUCAAAAGAAAUAGUAUUGCGCUCAACCAGAAAGUCUGUAAUCAUUUUAAGGGUA [A68G C101A] | 0.19 |
| GUUAACGGUCAUAGGCCAUGGAAACUAGGAGCACCAUUUCGCUGCCAGUGAAGAAAUGAACAAAGAAGAUCUGGGCCAGGCAGGCAUCAAAAGAAAUAGUGUUGCGCUCAACCAGAAAGUCUGUAAUCAUUUUAAGGGUA [A68G C101G] | 0.08 |
| GUUAACGGUCAUAGGCCAUGGAAACUAGGAGCACCAUUUCGCUGCCAGUGAAGAAAUGAACAAAGAAGAUCUGGGCCAGACAGGCAUCAAAAGAAAUAGUCUUGCGCUCAACCAGAAAGUCUGUAAUCAUUUUAAGGGUA [A68G G80A] | 0.21 |
| GUUAACGGUCAUAGGCCAUGGAAACUAGGAGCACCAUUUCGCUGCCAGUGAAGAAAUGAACAAAGAAGAUCUGGGCCAGGCAGGCAUCAAAAGAAAUAGUCAUGCGCUCAACCAGAAAGUCUGUAAUCAUUUUAAGGGUA [A68G U102A] | 0.85 |
| GUUAACGGUCAUAGGCCAUGGAAACUAGGAGCACCAUUUCGCUGCCAGUGAAGAAAUGAACAAAGAAGAUCUGGGCCAGGCAGGCAUCAAAAGAAAUAGUCUUGCGCCCAACCAGAAAGUCUGUAAUCAUUUUAAGGGUA [A68G U108C] | 0.01 |
| GUUAACGGUCAUAGGCCAUGGAAACUAGGAGCACCAUUUCGCUGCCAGUGAAGAAAUGAACAAAGAAGAUCUGGGCCAGGCAGGCAUCAAAAGAAAUAGUCUUGCGCACAACCAGAAAGUCUGUAAUCAUUUUAAGGGUA [A68G U108A] | 0.04 |
| GUUAACGGUCAUAGGCCAUGGAAACUAGGAGCACCAUUUCGCUGCCAGUGAAGAAAUGAACAAAGAAGAUCUGGGCCAGGCAGGCACCAAAAGAAAUAGUCUUGCGCUCAACCAGAAAGUCUGUAAUCAUUUUAAGGGUA [A68G U87C] | 1.12 |
| GUUAACGGUCAUAGGCCAUGGAAACUAGGAGCACCAUUUCGCUGCCAGUGAAGAAAUGAACAAAGAAGAUCUGGGCCAGGCAGGCAUCAAAAGAAAUAGUCUUGCGCUCAACCAGAAAGUCUGAAAUCAUUUUAAGGGUA [A68G U124A] | 0.95 |
| GUUAACGGUCAUAGGCCAUGGAAACUAGGAGCACCAUUUCGCUGCCAGUGAAGAAAUGAACAAAGAAGAUCUGGGCCAGGCAGGCAUCAAAAGAAAUAGUCUUGCGCUCAACCAGAAAGCCUGUAAUCAUUUUAAGGGUA [A68G U120C] | 0.65 |
| GUUAACGGUCAUAGGCCAUGGAAACUAGGAGCACCAUUUCGCUGCCAGUGAAGAAAUGAACAAAGAAGAUCUGGGCCAGGCAGGCAUCAAAAGAAAUAGUCUUGCGCUCAACCAGAAAGGCUGUAAUCAUUUUAAGGGUA [A68G U120G] | 1.02 |
| GUUAACGGUCAUAGGCCAUGGAAACUAGGAGCACCAUUUCGCUGCCAGUGAAGAAAUGAACAAAGAAGAUCUGGGCCAGGCAGGUAUCAAAAGAAAUAGUCUUGCGCUCAACCAGAAAGUCUGUAAUCAUUUUAAGGGUA [A68G C85U] | 1.49 |
| GUUAACGGUCAUAGGCCAUGGAAACUAGGAGCACCAUUUCGCUGCCAGUGAAGAAAUGAACAAAGAAGAUCUGGGCCAGGCAGGCAUCAAAAGAAAUAGUCUUGGGCUCAACCAGAAAGUCUGUAAUCAUUUUAAGGGUA [A68G C105G] | 0.03 |
| GUUAACGGUCAUAGGCCAUGGAAACUAGGAGCACCAUUUCGCUGCCAGUGAAGAAAUGAACAAAGAAGAUCUGGGCCAGGCAGGCAUCAAAAGAAAUAGUCUGGCGCUCAACCAGAAAGUCUGUAAUCAUUUUAAGGGUA [A68G U103G] | 0.04 |
| GUUAACGGUCAUAGGCCAUGGAAACUAGGAGCACCAUUUCGCUGCCAGUGAAGAAAUGAACAAAGAAGAUCUGGGCCAGGCAGGCAUCAAAAGAAAUAGUCUUGCGCUCAACCAGAAAGUCUGUAAUCAUUUCAAGGGUA [A68G U133C] | 1.87 |
| GUUAACGGUCAUAGGCCAUGGAAACUAGGAGCACCAUUUCGCUGCCAGUGAAGAAAUGAACAAAGAAGAUCUUGGCCAGGCAGGCAUCAAAAGAAAUAGUCUUGCGCUCAACCAGAAAGUCUGUAAUCAUUUUAAGGGUA [A68G G73U] | 0.07 |
